For three molecules, binding result and Kd results are on record in publication PMC7797366.

For series [1], the target named is T1, LLHD3 (Mus musculus, UniProt P61372;P50481).
T1 chain: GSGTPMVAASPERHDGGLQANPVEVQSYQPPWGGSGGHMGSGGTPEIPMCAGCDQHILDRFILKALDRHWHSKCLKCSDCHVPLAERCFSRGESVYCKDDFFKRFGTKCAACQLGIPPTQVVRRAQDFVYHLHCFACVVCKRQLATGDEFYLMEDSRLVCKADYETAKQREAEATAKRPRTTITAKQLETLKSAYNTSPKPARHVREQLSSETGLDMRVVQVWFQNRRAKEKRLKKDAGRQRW
Kind of series: EMSA.

A further series deals with T2, 2HDLL (Mus musculus, UniProt P61372;P50481).
T2 chain: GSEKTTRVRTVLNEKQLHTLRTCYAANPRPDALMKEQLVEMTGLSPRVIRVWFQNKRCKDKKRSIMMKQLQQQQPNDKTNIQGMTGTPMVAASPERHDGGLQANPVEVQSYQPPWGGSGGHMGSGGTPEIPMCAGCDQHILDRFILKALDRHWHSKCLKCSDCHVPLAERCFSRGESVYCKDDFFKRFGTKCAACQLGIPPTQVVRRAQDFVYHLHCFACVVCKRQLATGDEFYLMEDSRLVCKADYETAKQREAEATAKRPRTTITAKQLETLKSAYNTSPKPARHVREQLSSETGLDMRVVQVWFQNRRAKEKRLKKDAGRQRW
The series can be described thus: SEC-MALLS, SAXS.

The target in a further series is T3, 2HD (Mus musculus, UniProt P61372;P50481).
T3 chain: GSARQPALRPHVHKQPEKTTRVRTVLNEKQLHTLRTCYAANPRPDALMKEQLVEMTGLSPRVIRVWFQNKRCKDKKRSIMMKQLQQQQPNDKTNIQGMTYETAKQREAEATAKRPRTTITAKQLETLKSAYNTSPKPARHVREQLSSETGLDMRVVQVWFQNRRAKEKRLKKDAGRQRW
The series can be described thus: SAXS.

In series [2] the target is T1, LLHD3. The series can be described thus: EMSA. On the technique in general: A gel shift assay detects complexes by their altered migration in electrophoresis.

B1: ISL1GA (dsDNA)
DNA 1: ACCGCGTAATATCTG
DNA 2: CAGATATTACGCGGT
For the molecule B1, the binding result with LLHD3 [1] is reported as “no binding”.

B2: M100 20-mer (SAXS) (dsDNA)
DNA 1: CCGCATTAGCCAAATTACGC
DNA 2: GCGTAATTTGGCTAATGCGG
As to B2, the binding result with 2HDLL and with 2HD was “binds” in each case.

B3: M100 (EMSA) (dsDNA)
DNA 1: CGGCCATTAGCCAAATTACGGC
DNA 2: GCCGTAATTTGGCTAATGGCCG
Take B3: the Kd in the series with LLHD3 [2] is 1000 nM.

As a reminder, the Kd is the equilibrium constant for the complex coming apart. The low end stands for higher affinity, the high end for lower affinity.
